{"source": "paper PMC4517176", "key": {"[1]": {"target": "ePTEN-GFP (expressed in HEK293) (human) (UniProt P60484)", "test": "co-IP; PTEN-GFP constructs from HEK293 lysates held on anti-GFP beads (two hours), then 400 ul whole-cell lysate of HEK293 expressing HA-NEDD4-1 added for three hours; three washes; blots with anti-GFP and anti-HA; band intensity quantified (n = 3)"}, "[2]": {"target": "nPTEN-GFP (expressed in HEK293) (human) (UniProt P60484)", "test": "co-IP; PTEN-GFP constructs from HEK293 lysates held on anti-GFP beads (two hours), then 400 ul whole-cell lysate of HEK293 expressing HA-NEDD4-1 added for three hours; three washes; blots with anti-GFP and anti-HA; band intensity quantified (n = 3)"}}}
{"substance": "HA-NEDD4-1 (from UniProt P46934 1-1319) (enzyme)", "values": [{"measurement": "increase of co-precipitated NEDD4-1 against GFP alone and wild-type PTEN-GFP", "setting": "[1]", "result": 2.5}, {"measurement": "increase of co-precipitated NEDD4-1 against GFP alone and wild-type PTEN-GFP", "setting": "[2]", "result": 2.5}]}
